Patent CN112745392A (SHANGHAI NOVAMAB BIOPHARMACEUTICALS CO LTD, dated 2021)
Each block holds one binder with its values, some of them ahead of it.

Key:
hPD-L1(ECD)-Fc = target: T1, hPD-L1(ECD)-Fc (human, UniProt Q9NZQ7 19-238); assay: BLI (Fortebio Red96), Protein A probes, 30℃
T1 construct: extracellular domain; also called 重组人PD-L1; not shown: Fc part not described

hCD47(ECD)-Fc = target: T2, hCD47(ECD)-Fc (human, UniProt Q08722 19-139); assay: BLI (Fortebio Red96), Protein A probes, 30℃
T2 construct: extracellular domain; not shown: Fc part not described
T2 sequence (Q08722 19-139): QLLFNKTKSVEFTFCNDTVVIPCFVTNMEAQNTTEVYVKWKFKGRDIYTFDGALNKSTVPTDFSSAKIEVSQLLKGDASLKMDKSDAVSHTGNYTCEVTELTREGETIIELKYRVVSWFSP

[1] = target: T3, 人CD47 (Jurkat细胞, 高表达人CD47) (human, UniProt Q08722 19-323); assay: flow cytometry competition against hSIRPa(ECD)-Fc-Biotin on Jurkat cells
T3 construct: whole, on cells
T3 sequence (Q08722 19-323): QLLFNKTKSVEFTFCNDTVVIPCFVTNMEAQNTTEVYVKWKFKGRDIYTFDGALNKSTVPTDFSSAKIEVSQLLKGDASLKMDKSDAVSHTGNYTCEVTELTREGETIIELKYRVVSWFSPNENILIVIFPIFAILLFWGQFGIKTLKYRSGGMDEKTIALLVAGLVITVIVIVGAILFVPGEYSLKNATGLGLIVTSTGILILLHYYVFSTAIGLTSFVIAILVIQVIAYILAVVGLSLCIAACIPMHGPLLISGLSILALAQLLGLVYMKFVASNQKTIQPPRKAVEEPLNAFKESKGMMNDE

T1 sequence (Q9NZQ7 19-238): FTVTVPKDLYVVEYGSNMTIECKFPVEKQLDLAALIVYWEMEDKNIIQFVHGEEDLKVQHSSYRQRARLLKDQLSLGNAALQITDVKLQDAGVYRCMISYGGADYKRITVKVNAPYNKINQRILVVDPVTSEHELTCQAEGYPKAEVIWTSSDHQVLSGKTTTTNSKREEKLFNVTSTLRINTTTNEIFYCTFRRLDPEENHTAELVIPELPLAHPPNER

Kd (hPD-L1(ECD)-Fc): 26.5 nM
B1: PD-L1单域抗体Fc融合蛋白(Nb-Fc) (Fc fusion)
chain: QVQLQESGGGLVQPGGSLRLSCTASGYNLSPSCMGWFRQAPGKGLEGVAFTDADGSTRYADSVKARFTISRDNSKNTLYLQMNSLRAEDTAVYYCAADFFSYCSVVFRASARDKYRGQGTLVTVSS
notes: Control; also called PD-L1 Nb-Fc; 原始PD-L1单域抗体; not shown: Fc part (and any hinge or linker) of the control fusion is not described

Kd (hCD47(ECD)-Fc): 6.13 nM
IC50 [1]: 4.49 nM
B2: CD47单域抗体Fc融合蛋白(Nb-Fc) (Fc fusion)
chain: QVQLQESGGGLVQPGGSLRLSCAASGYAYTSDCMGWFRQTPGKGLEGVALIYTPGASTNYADSVKGRFTISQDNSKSTVYLQMNSLRAEDTAMYYCAARRGACSLRLPFFYWGQGTLVTVSS
notes: Control; also called CD47 Nb-Fc; 原始CD47单域抗体; not shown: Fc part (and any hinge or linker) of the control fusion is not described
